Assay results as given in the DeepSol protein solubility set.

Assay: soluble on expression in E. coli; label from the status in PepcDB or PDB records

MKIRSQVGMVLNLDKCIGCHTCSVTCKNVWTGREGMEYAWFNNVETKPGIGYPKNWEDQQEWQGGWVRDVNGKIRPRLGGKMGVISKIFANPVIPQIDDYYEPFTFDYQHLHNAPESKHQPTARPRSLIDGKRMDKVIWGPNWEELLGGEFEKRARDRNFDNIQKEMYGQFENTFMMYLPRLCEHCLNPSCVATCPSGAIYKREEDGIVLIDQDKCRGWRLCISGCPYKKIYFNWKSGKSEKCIFCYPRIESGQPTVCSETCVGRIRYLGVLLYDADRIEEAASTEHETDLYERQCDVFLNPHDPAVIEEALKQGIPQNVIDAAQRSPVYKMAMDWKLALPLHPEYRTLPMVWYVPPLSPIQSYADAGGLPHNGNILPAVETLRIPVQYLANMLSAGDTGPVIRALKRMMAMRHYMRSQTVEGVTDTRAIEEVGLSIQQVEEMYRYLAIANYEDRFVIPTSHREMARDAFPERNGCGFTFGDGCHGSDTKFNLFNSSRIDAINITEVRDKAEGE
soluble on expression in E. coli: not soluble

MSLERIDIASVKGGVGKSFIAYFLSKTLAASHKILLIDKDLTSTLSRVYNIKGNLLSYLTVGQSSLAYFKEVDSGLTVVNVGCSRKIKNVEPKKIADIYSGFSDHDLMIVDNPSIPSDVCLDTELQAYYTYLNEKRLDYNLILILPPNQLLLDESLAFMQLFKDYIKNELSISLGNDLVNFDVISSVINMYNPRERIDISKIKDLTSKIVKIPFKKEAIYTPFNQLNTPMEISELAKYVLEYLESREGHHHHHH
soluble on expression in E. coli: soluble

MRLLVAFAVIYFISISPVCAENTASTINIPTPAIESPLASKSLLLDISLIGQEKLVTVGQHGHILLSNDGKKWQQANVPVQVTLTNVFFLNEQLGWAVGHDATILHSQDGGLNWQVQQYLPLLEKPLFDIYFKNPQQGIAVGAYGQVFRTNDGGSTWQNEFHQEILLADDVEYLNELKAEDEAAYLDEITFILPHFNRLVQDGGSLFLLGETGLLAKSDDFGLTWQQFDNFYQGSFFSLARTKTGNVLVAGLRGHVFRSLNHGSQWDEVPTNTTALLNDIVFANDERIFILGNNGMLLISTDDGESFSKIPQQDGKTLIAGVWFKGQLIAVSDVGIKVVDLSQELEHHHHHH
soluble on expression in E. coli: not soluble

MKKVFIPINTKIPVERQFPNRVPIWGNYEFIISTKEPEQEYDYVVVLDDIEYSLRLMCCKQNICLFTGEPPYVKLYPRKYLNQFGHVYTCQSSVLKRDNACLSYPALPWMLYYNFYNDKQKEELLIDYDFLKNRPTLQRKNKICLFTSNKKISKGHIERIKFALKLQEEMPDLIDIYGSGFTNVDYKYEVMVQYKYAIVIENCSYPYYWTEKLADTFLSGCYPIYFGDPHIGDFFSKEEMAVIDIRNFDESKQTIKKIIDNNVYEKQYENICHARDKILDKYNMFSLISSTLDSIPAKLDKEKLLLSPMRLSVFDRIRNRIYRLFYLEHHHHHH
soluble on expression in E. coli: not soluble

MHSLQNVIPQQQAHIAELQVYNNKLERDLQNKIGSLTSSIEWYLRSMELDPEIKADIEQQINSIDAINPLHAFDDLESVIRNLISDYDKLFLMFKGLIQRSNYQYSFGSE
soluble on expression in E. coli: soluble

AIAAMGRTTQFTLDEVAKHADKDSCWLVIDGKVYAVEKFLNEHPGGEDVLLETAGRDATREFEDVGHSKSAREQLKEFYIGDVREPTAEELAAKRAVQASAAAERRDGDGVRANGLGKERLFAGGAFGAEPLSGGSSTWTLLKRLFVPVCIAVLVYLVREYSKQVQTGG
soluble on expression in E. coli: soluble

MMWIPYNQGFHAGPKCLTVVFIYLLNMKVLRHIYRFLMELYGPQGWWPLLDRDTMTLRYHPGDYTPPSDDGDVFEVITGSILTQNTSWDSAASALRNLAAMDALKPHRILSLDDAELEAAIRCAGFYRQKVSYLREMAGFFISLEGSTPSRKELLKVRGVGPETADSVLLYAYRKPEFVVDAYTRRILTHLGLIAGDESYHRIKELFERSLEPDFRVFQEYHALIVRHGKSYYRGRVHGDGDPLTEKLEHHHHHH
soluble on expression in E. coli: not soluble

MDFGKTNSKLFVFGQDGGILDERRTQPKWTHQDGFSVLDEAALHDWALGAVTEAVENHGVEGVMVSGHGCTFALVDDAALTHPILDYEQEPPAEIAARIDHRIPDFAETFSPRLPLGFNYGRHMLWVQEVDPDAFAAAKSILGYPQYWSWRLGGRPVSEVSYLGCHSHLWAPRSQDFSSLVDAEGWRGQMPAFARAGAVIGERRLGSSSRPIAIHNGVHDSNAALHAYRRQELGLEHHHHHH
soluble on expression in E. coli: soluble

MAHHHHHHMSFLPIRVCVLVCSYEGSDSELKEYEGEIVQTPQHYFTEEDSKEFVFTLEFVKKATAYRQIRQLVKSGAFDVFYNQCDGAIDEDKAGVEVVQALESFKVPFTGAISKYYELSKPEMKRMAHYCAVKTAPYAVLEAGDNVRELCAALHFPLIVKHISGYSSVGMDKSCKVYDMDALKERVARFIDQYQSALVEEFISGDEATVLVCADASQPGGIRVFPPVMVQFPEGEDFKHFHLKWETYEGMIWRLVSEDDPALPDIIHIARTAFLHMMGGVGYGRVDVRIDREKNTVVFLEINPNCGIMYPYGQEGSADWILRLTPEFKQKEFAKLQISEAIRIHKCKQPLFRCAYDPVREYYICATRDIPAGSIIFEGEGRLVRLCTKPYVKANWSEVEYNEFLHDAWPVGAEGHYYALWDLESSDWRAVNHSCDPNMGFCPNRSLNVHALRDIAKGEELTMDCRLFMDDTMPPFQCHCKTSICAGWIRGGVMRESHFFESYTERLIHREDKFITQLTRN
soluble on expression in E. coli: not soluble

CGSSSHETSYGYATLSYADYWAGELGQSRDVLLAGNAEADRAGDLDAGMFDAVSRATHGHGAFRQQFQYAVEVLGEKVLSKQETEDSRGRKKWEYETDPSVTKMVRASASFQDLGEDGEIKFEAVEGAVALADRASSFMVDSEEYKITNVKVHGMKFVPVAVPHELKGIAKEKFHFVEDSRVTENTNGLKTMLTEDSFSARKVSSMESPHDLVVDTVGTGYHSRFGSDAEASVMLKRADGSELSHREFIDYVMNFNTVRYDYYGDDASYTNLMASYGTKHSADSWWKTGRVPRISCGINYGFDRFKGSGPGYYRLTLIANGYRDVVADVRFLPKYEGNIDIGLKGKVLTIGGADAETLMDAAVDVFADGQPKLVSDQAVSLGQNVLSADFTPGTEYTVEVRFKEFGSVRAKVVAQ
soluble on expression in E. coli: soluble

MEKYLPILRNSPFFKGLSDNEILSILHCVNATVISKERASYIFRAGDSTEVMGLVVSGCVLVMQEDLWGHRNILSKCHAGDFFGEPYAASLGAVLNISVAADEDCEIIFLNVQRLLVTCQTACEHHQKLIRNLVSVLANKILILNDKITHVGKRTTRDKLLSYLSAESIRRSSLSFDIPFDRQQLADYLCIDRAAMSTEISKLQKEGFIKTNRNHFELIACNETDLQADK
soluble on expression in E. coli: not soluble

MKRRRKSGEKVQMHRFALPLCYGSEAPYYYYEVAPHEREERFHLTSELCVMDDEHYFIRGCLEIPIIDYHENFIWTVWVSLSKESYDEVLEKWDERGRENSDPYFGWLSVEMPVYPETLNLKTNVHIREVGTAPYVELEPTEHPLAIEQRNGITLERVKEIQEMIQRHS
soluble on expression in E. coli: not soluble

MGGSHHHHHHGMASALKAHMVRQHSRRQDLLPQLEAPSSLTPSSELSSPGQSELTNMDLAALFSDTPANASGSAGGSDEALNSGILTIDVTSVSSSLGGNLPANNSSLGPMEPLVLVAHSDIPPSLDSPLVLGTAATVLQQGSFSVDDVQTVSAGALGCLVALPMKNLSDDPLALTSNSNLAAHITTPTSSSTPRENASVPELLAPIKVEPDSPSRPGAVGQQEGSHGLPQSTLPSPAEQHGAQDTELSAGTGNFYLESGGSARTDYRAIQLAKEKKQRGAGSNAGASQSTQRKIKEGKMSPPHFHASQNSWLCGSLVVPSGGRPGPAPAAGVQCGAQGVQVQLVQDDPSGEGVLPSARGPATFLPFLTVDLPVYVLQEVLPSSGGPAGPEATQFPGSTINLQDLQ
soluble on expression in E. coli: not soluble

MLARVCERTPISTPAWTDTLTRLAPDASSVLARGPWTWKYALPPAVVGVAALAASSPWGVVGVALAAFVVWFHRDPDRSPNGAGVVVPADGTVSVIRTRDDGRVRVGVFMNVHNVHVNRVPVAGRVESVVHEPGGHRPAFSKESAHNERVRIETAEWTVVLIAGAFARRIHPYVEAGEDLARGDRLGHISFGSRADVVLPPAYDRGDVVVESGQTVRAGETVLARLEHHHHHH
soluble on expression in E. coli: soluble

MEALDLLLNRRSIAKLDAPAPQNEALDNILRAGLRAPDHGALTPWRFVVAQGEGLAKLAAILEQAEIANGSDEAVISKAKNAPFRAPMVITVIAKVTHSEKIPAFEQHLSAGCAVQAMQMAAIAQGFQGIWRSGSWMFHPVVRRAFNVQGEDHIVGFLYLGTPGTTAAKVPERELSKYVEYL
soluble on expression in E. coli: not soluble

MEPKRIREGYLVKKGSVFNTWKPMWVVLLEDGIEFYKKKSDNSPKGMIPLKGSTLTSPCQDFGKRMFVLKITTTKQQDHFFQAAFLEERDAWVRDIKKAIKCIEGGQKFARKSTRRSIRLPETIDLGALYLSMKDPEKGIKELNLEKDKKVFNHCLTGSGVIDWLVSNKLVRNRQEGLMISASLLSEGYLQPAGDLSKNAADGIAENPFLDSPDAFYYFPDSGFFCEENSSDDDVILREEFRGVIIKQGCLLKQGTGENWKVRKFILREDPAYLHYYDPAGGEDPLGAVHLRGCVVTSVESSHDVKKSDEENLFEIITADEVHYYLQAATSKGRTEWIKAIQVASRTGK
soluble on expression in E. coli: soluble

MFPIASRRILLNASVLPLRLCNRNFTTTRISYNVIQDLYLRELKDTKLAPSTLQDAEGNVKPWNPPQKPNLPELELQGPEALKAYTEQNVETAHVAKESEEGESEPIEEDWLVLDDAEETKESH
soluble on expression in E. coli: not soluble

MGSDKIHHHHHHMNILDGIKSLALKLGSKQDQTYYARGLSLTDDLMQIEALWRDNWIANKVCIKRSEDMVRNWRDIFSNDLKSEQLDEFTKLERRLKLRETLTKALQWSSLYGAVGLLVVTDTINITSPLQPTERLKRLIILPKWKISPTGQRDDDVFSPNFGRYSEYTITGGTQSVSVHHSRLLIINANDAPLSDNDIWGVSDLEKIIDVLKRFDSASANVGDLIFESKIDIFKIAGLSDKISAGLENDVAHVISAVQSIKSATNSLLLDAENEYDRKELSFGGLKDLLTEFRNAVAGAADMPVTILFGQSVSGLASGDEDIQNYHESIHRLQETRLRPVLEVLDTLLCNELFGGQPDDWWFEFLPLTVVKQEQQVNMLNTFATAANTLIQNGVVNEYQVANELRESGLFANISADDIEEMKNANELARNFEEPEGESTQVQASEDE
soluble on expression in E. coli: not soluble

AFMQDRLKIMRQQNPAASLQHQWVDYEQISSHLKRAVIAAEDARFLQHQGFDYKAIETAWKKNLKQRKWAAGGSTISQQLAKNLFLSTEKTVWRKSRETLITLMLEEFLTKRRILEIYLNIIEWGDGIFGIEAAARHYFGISAASLTPAQAAWLASIIPNPRFYDTRRTLPKLLNKSRIILSRLPAAKIP
soluble on expression in E. coli: not soluble

MSDHQDGMKLEDIERQFLDVAQREGGLEAIQPTTGPLENEENLKSSTGGGGGEDDNDRKKRKRSRSRDRDTRRRSRSRDRGERRGGGGGGDRDRSRSRERRRGGGGRDEPRRRGGDDEARSRREPEPQKPREPKKYRFWDVPPTGFETTTPMEYKNMQAAGQVPRGSVQSAVPVVGPSVTCQSRRLYVGNIPFGCNEEAMLDFFNQQMHLCGLAQAPGNPILLCQINLDKNFAFIEFRSIDETTAGMAFDGINFMGQQLKVRRPRDYQPSQNTFDMNSRMPVSTIVVDSANKIFIGGLPNYLTEDQVKELLCSFGPLKAFSLNVDSQGNSKGYAFAEYLDPTLTDQAIAGLNGMQLGDKQLVVQLACANQQRHNTNLPNSASAIAGIDLSQGAGRATEILCLMNMVTEDELKADDEYEEILEDVRDECSKYGIVRSLEIPRPYEDHPVPGVGKVFVEFASTSDCQRAQAALTGRKFANRTVVTSYYDVDKYHNRQF
soluble on expression in E. coli: soluble

MHTSELLKHIYDINLSYLLLAQRLIVQDKASAMFRLGINEEMATTLAALTLPQMVKLAETNQLVCHFRFDSHQTITQLTQDSRVDDLQQIHTGIMLSTRLLNDVNQPEEALRKKRA
soluble on expression in E. coli: soluble
